Measurements from patent US20210380651A1 (SIOLTA THERAPEUTICS, published 2021).

Biological target: T1, IgE-Fc protein having the amino acid sequence set forth in SEQ ID NO: 5 (murine, UniProt P06336 91-421, glycosylated (fully glycosylated IgE-Fc))
T1 construct: Made in HEK293T cells; also called murine IgE-Fc; single domain IgE-Fc; not shown: TEV-His tag (detected with anti-His antibodies)
T1 sequence: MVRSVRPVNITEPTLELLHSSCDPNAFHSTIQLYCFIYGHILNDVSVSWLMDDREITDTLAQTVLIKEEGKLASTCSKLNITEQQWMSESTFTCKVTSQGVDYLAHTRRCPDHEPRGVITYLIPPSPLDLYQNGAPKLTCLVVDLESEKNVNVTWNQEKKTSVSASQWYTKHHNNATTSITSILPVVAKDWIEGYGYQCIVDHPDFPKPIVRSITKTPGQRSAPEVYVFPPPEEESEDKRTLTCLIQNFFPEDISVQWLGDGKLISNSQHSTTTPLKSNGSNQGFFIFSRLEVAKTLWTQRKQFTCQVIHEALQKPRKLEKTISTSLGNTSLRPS
Assay: flow cytometry on RBL-2H3 cells, 30 min, APC anti-His detection
Method: Cells of the histamine-releasing rat cell line RBL-2H3 and human peripheral blood mononuclear cells (PBMCs) were treated with the IgE-Fc protein (purified) having the amino acid sequence set forth in SEQ ID NO: 5 and the IgG-Fc-IgE-Fc fusion protein (unpurified, obtained from cell culture supernatant) having the amino acid sequence set forth in SEQ ID NO: 12 for 30 min. Cells were then thoroughly washed and stained with allophycocyanin (APC) conjugated anti-His antibodies and subsequently analyzed by flow cytometry. Anti-His antibodies detected Fc proteins that were bound to the cell surface due to their specific interaction with Fc epsilon Receptor I (FcεRI) and Fc gamma Receptor IIB (FcγRIIB), respectively. IgG-Fc-IgE-Fc proteins were able to bind to both the rat basophil cell line RBL-2H3 as well as to human PBMCs (comprised about 50-70% […], 10-25% T cells, and 20-30% of cells expressing FcgRIIB), even in very low concentrations in which the IgG-Fc-IgE-Fc fusion protein was present (approximately 0.05 mg/mL) in cell culture supernatants compared to purified and highly concentrated IgE-Fc proteins (approximately 1 mg/mL).

B1: Fc epsilon Receptor I (FcεRI) on cells of the rat basophil cell line RBL-2H3 (receptor, UniProt P12371 24-245, looked up)
chain: ATQKSVVSLDPPWIRILTGDKVTLICNGNNSSQMNSTKWIHNDSISNVKSSHWVIVSATIQDSGKYICQKQGFYKSKPVYLNVMQEWLLLQSSADVVLDNGSFDIRCRSWKKWKVHKVIYYKDDIAFKYSYDSNNISIRKATFNDSGSYHCTGYLNKVECKSDKFSIAVVKDYTIEYRWLQLIFPSLAVILFAVDTGLWFSTHKQFESILKIQKTGKGKKKG
notes: whole, on cells; the receptor on cells also has beta and gamma chains; also called FceRI; Fc epsilon receptors
binding result: binds
